We go through one molecule from publication PMC8376870 (2021).

The experiment concerns the target GST-G511-V540 (TRPV6 S5 fragment) (Homo sapiens (Human), UniProt Q9H1D0). As to the kind of experiment: in vitro pull-down (GST/His-MBP) with western blot. Background: Immunoblotting shows a protein as a band on a membrane.

Chain of GST-G511-V540 (TRPV6 S5 fragment) (Q9H1D0 511-540): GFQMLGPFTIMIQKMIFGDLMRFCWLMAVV

B1: His-MBP-A603-L632 (TRPV6 S6 fragment) (protein)
chain: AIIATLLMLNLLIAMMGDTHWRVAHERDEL
On to B1, for which the binding result is recorded as “binds”.
